Data from US7087717B2, “Sp110, a polypeptide component of the nuclear body” (The General Hospital Corporation, priority 2000, dated 2006).

B1: Sp110: novel 110 kDa polypeptide component of the nuclear body, 689 amino acids, SEQ ID NO:2 (protein, listed as Homo sapiens)
chain: MFTMTRAMEEALFQHFMHQKLGIAYAIHKPFPFFEGLLDNSIITKRMYMESLEACRNLIPVSRVVHNILTQLERTFNLSLLVTLFSQINLREYPNLVTIYRSFKRVGASYERQSRDTPILLEAPTGLAEGSSLHTPLALPHHKPPQPSCSPCAPRVSEPGTSSQQSTEILSESPSPSDPVLPLPALIQEGRSTSVTNDKLTSKMNAEEDSEEMPSLLTSTVQVASDNLIPQIRDKEDPQEMPHSPLGSMPEIRDNSPEPNDPEEPQEVSSTPSDKKGKKRKRCIWSTPKRRHKKKSLPRGTASSRHGIQKKLKRVDQVPQKKDDSTCNSTVETRAQKARTECARKSRSEEIIDGTSEMNEGKRSQKTPSTPRRVTQGAASPGHGIQEKLQVVDKVTQRKDDSTWNSEVMMRVQKARTKCARKSRSKEKKKEKDICSSSKRRFQKNIHRRGKPKSDTVDFHCSKLPVTCGEAKGILYKKKMKHGSSVKCIRNEDGTWLTPNEFEVEGKGRNAKNWKRNIRCEGTTLGELLKRKNSDECEVCCQGGQLLCCGTCPRVFHEDCHIPPVEAKRMLWSCTFCRMKRSSGSQQCHHVSKTLERQMQPQDQLIRDYGEPFQEAMWLDLVKERLITEMYTVAWFVRDMRLMFRNHKTFYKASDFGQVGLDLEAEFEKDLKDVLGFHEANDGGFWTLP
B2: Sp110m: mutant Sp110 protein in which two of the three LXXLL leucine residues were changed, one to valine and one to alanine (LXXVA) (protein)
chain: B1 chain
B3: IFN-γ: interferon (protein, UniProt P01579 24-161, looked up)
Interferon gamma: QDPYVKEAENLKKYFNAGHSDVADNGTLFLGILKNWKEESDRKIMQSQIVSFYFKLFKNFKDDQSIQKSVETIKEDMNVKFFNSNKKKRDDFEKLTNYSVTDLNVQRKAIHELIQVMAELSPAAKTGKRKRSQMLFRG
B4: N-terminal portion: N-terminal portion of Sp110, containing the Sp100-like region, fused to VP16 or GAL4 (protein)
chain: MFTMTRAMEEALFQHFMHQKLGIAYAIHKPFPFFEGLLDNSIITKRMYMESLEACRNLIPVSRVVHNILTQLERTFNLSLLVTLFSQINLREYPNLVTIYRSFKRVGASYERQSRDTPILLEAPTGLAEGSSLHTPLALPHHKPPQPSCSPCAPRVSEPGTSSQQSTEILSESPSPSDPVLPLPALIQEGRSTSVTNDKLTSKMNAEEDSEEMPSLLTSTVQVASDNLIP
modifications: left off: large carriers
notes: N-terminal portion of Sp110, containing the Sp100-like region, fused to VP16 or GAL4
B5: C-terminal portion: C-terminal portion of Sp110, containing the PHD and the bromodomain, fused to VP16 or GAL4 (protein)
chain: KRKNSDECEVCCQGGQLLCCGTCPRVFHEDCHIPPVEAKRMLWSCTFCRMKRSSGSQQCHHVSKTLERQMQPQDQLIRDYGEPFQEAMWLDLVKERLITEMYTVAWFVRDMRLMFRNHKTFYKASDFGQVGLDLEAEFEKDLKDVLGFHEANDGGFWTLP
modifications: left off: large carriers
notes: C-terminal portion of Sp110, containing the PHD and the bromodomain, fused to VP16 or GAL4

What was measured:
[1] = tested on: RARα response element; test: RAR transcriptional co-activation reporter assay; format: cell-based; conditions: for signal transduction through RARα / expression of the reporter gene: expressed with RARα
Description: Experiments were also performed to determine whether Sp110 could function as a retinoic acid receptor (RAR) transcriptional co-activator. […] The extent of reporter gene activation by Sp110 was similar to that induced by the nuclear body component PML.

[2] = tested on: PPARα; test: PPARα co-activation reporter assay (PPRE) in COS cells; format: cell-based; conditions: COS cells co-transfected with PPARα; compared with PPARα expressed alone
Source text: Sp110 also acted as a co-activator of PPARα. […] Sp110 may interact with nuclear hormone receptors via an LXXLL domain. To determine whether Sp110 interacts with PPARα via the LULL domain, oligonucleotides and PCR were used to prepare a mutant Sp110 protein (Sp110m) in which two of the three leucine residues were changed, one to valine and one to alanine (LXXVA).

[3] = tested on: PPARγ receptor; test: PPARγ signal transduction reporter assay; format: cell-based
[4] = tested on: HL60 cells; test: Sp110 mRNA level by RNA blot after IFN-γ treatment; format: cell-based, human; conditions: 200 units/ml, 48 hours
Description: To investigate the expression of Sp110 in cells of the monocyte/granulocyte lineage, RNA was prepared from the myeloid precursor cell lines HL60 and NB4 (HL60 cells are available from the American Type Culture Collection, Manassas, Va.). RNA was extracted from these cell lines using the guanidinium isothiocyanate-cesium chloride method (Sambrook et al., Cold Spring Harbor Laboratory, Cold Spring Harbor, N.Y., 1989). The HL60 cells were maintained in RPMI supplemented with 10% fetal calf serum, L-glutamine (2 mM), penicillin (200 units/ml), and streptomycin (200 mg/ml). RNA was fractionated in formaldehyde-agarose gels (5 μg/lane) and equal loading of RNA was confirmed by staining 28S and 18S ribosomal RNA with ethidium bromide. RNA was transferred to nylon membranes and the membranes were hybridized with the radiolabeled XbaI restriction fragment of the Sp110 cDNA or the EcoRI/BamHI restriction fragment of the cDNA encoding human Sp100 (Bloch et al., J. Biol. Chem. 46:29198–29204, 1996). Membranes were washed and analyzed by autoradiography. Low levels of Sp110 mRNA were detected in both NB4 cells and HL60 cells.
To examine the effect of cellular differentiation on Sp110 mRNA, NB4 cells were treated for 48 hours with all trans retinoic acid (ATRA) (1 μM). […] To examine the effect of IFN-γ treatment on Sp110 mRNA levels, HL60 cells were treated with IFN-γ (200 units/ml) for 48 hours.

[5] = tested on: CAT reporter plasmid containing five GAL4 binding sites and an SV40 enhancer region (pG5SV-BCAT); test: GAL4 fusion / CAT reporter gene transcription assay in COS cells; format: cell-based
Source text: To examine the potential effect of Sp110 on gene transcription, a eukaryotic expression plasmid encoding Sp110 fused to the DNA-binding domain of GAL4 (pBXG-Sp1110) was co-transfected with a CAT reporter plasmid containing five GAL4 binding sites and an SV40 enhancer region (pG5SV-BCAT) into COS cells.
To identify the portion of Sp110 that enhances reporter gene expression, DNA segments encoding fragments of Sp110 fused to GAL4 were expressed with a reporter gene in COS cells. […] The mechanism by which Sp110 enhances PPARα-mediated gene transcription can be investigated, as described below, by identifying proteins that interact with the activation domain and SAND domain.

[6] = tested on: CBP; test: Mammalian two-hybrid assay with GAL4-CBP in COS cells; format: cell-based; conditions: VP16 fusions, compared with VP16 alone
Source text: PPARα interacted with the N-terminal portion of CBP/p300 between amino acid residues 39 and 221. To determine whether Sp110 also interacts with CBP, the mammalian two-hybrid system was used as an assay. In this assay, the GAL4 DNA-binding domain (GAL4) fused to CBP (GAL4-CBP) and a luciferase reporter gene containing GAL4 response elements were expressed in COS cells with either Sp110 fused to the herpes simplex virus VP16 activation domain (VP16-Sp110) or VP16 alone. […] Thus, Sp110 interacts, either directly or indirectly, with CBP. The site of functional interaction between Sp110 and CBP was mapped more specifically to amino acid residues 271–720 of CBP. The Sp110-CBP functional interaction domain is therefore distinct from the PPARα-CBP interaction domain.
To identify the portion of Sp110 that functionally interacts with CBP, the N-terminal or C-terminal portions of Sp110 were fused to VP16 and expressed in COS cells together with GAL4CBP and a reporter gene. […] As described below, studies can be carried out to further delineate the domains that mediate functional interaction between Sp110 and CBP and to test whether Sp110 interacts with CBP directly.

Molecule	signal transduction through RARα / expression of the reporter gene [1]	agonist-induced expression of the PPRE reporter gene / activation of the PPARα receptor [2]	signal transduction through the PPARγ receptor [3]	reporter gene expression by fragments of Sp110 fused to GAL4 [5]	GAL4-CBP-induced luciferase reporter gene activity [6]	other results
B1	enhanced signal transduction	markedly enhanced	enhanced signal transduction	–	–	ATRA-induced expression of the reporter gene ([1]; COS cells, reporter with three copies of the RARα response element): significantly enhanced
B2	also enhanced expression of the reporter gene	less than wild-type Sp110	enhanced signal transduction	–	–	–
B3	–	–	–	–	–	Sp110 mRNA level [4]: marked increase
B4	–	–	–	Neither the N-terminal (Sp100-like domain), nor the C-terminal (PHD/bromodomain) portions of Sp110 increased expression of the reporter gene	did not	–
B5	–	–	–	Neither the N-terminal (Sp100-like domain), nor the C-terminal (PHD/bromodomain) portions of Sp110 increased expression of the reporter gene	enhanced	–
